Reference: US20230002480A1

Legend:
Test in all cases: cell-based or functional assay
[1] = molecular target: HIV-1 Env of pseudovirus Ce2060_G9 (HIV-1)
[2] = molecular target: HIV-1 Env of pseudovirus 6540.v4.c1 (HIV-1)
[3] = molecular target: HIV-1 Env of pseudovirus Du156.12 (HIV-1)
[4] = molecular target: HIV-1 Env of pseudovirus A07412M1.vrc12 (HIV-1)
[5] = molecular target: HIV-1 Env of pseudovirus 3016.v5.c45 (HIV-1)
[6] = molecular target: HIV-1 Env of pseudovirus TRO.11 (HIV-1)
[7] = molecular target: HIV-1 Env of pseudovirus BJOX009000.02.4 (HIV-1)
[8] = molecular target: HIV-1 Env of pseudovirus HIV-16845-2.22 (HIV-1)
[9] = molecular target: HIV-1 Env of pseudovirus Q461.e2 (HIV-1)
[10] = molecular target: HIV-1 Env of pseudovirus CNE53 (HIV-1)
[11] = molecular target: HIV-1 Env of pseudovirus BJOX010000.06.2 (HIV-1)
[12] = molecular target: HIV-1 Env of pseudovirus Q259.d2.17 (HIV-1)
[13] = molecular target: HIV-1 Env of pseudovirus ZM214M.PL15 (HIV-1)
[14] = molecular target: HIV-1 Env of pseudovirus C1080.c03 (HIV-1)
[15] = molecular target: HIV-1 Env of pseudovirus 235-47 (HIV-1)
[16] = molecular target: HIV-1 Env of pseudovirus WEAU_d15_410_787 (HIV-1)
[17] = molecular target: HIV-1 Env of pseudovirus C4118.c09 (HIV-1)
[18] = molecular target: HIV-1 Env of pseudovirus P1981_C5_3 (HIV-1)
[19] = molecular target: HIV-1 Env of pseudovirus 62357_14_D3_4589 (HIV-1)
[20] = molecular target: HIV-1 Env of pseudovirus HIV-0013095-2.11 (HIV-1)
[21] = molecular target: HIV-1 Env of pseudovirus Ce2010_F5 (HIV-1)
[22] = molecular target: HIV-1 Env of pseudovirus Du422.1 (HIV-1)
[23] = molecular target: HIV-1 Env of pseudovirus 6952.v1.c20 (HIV-1)
[24] = molecular target: HIV-1 Env of pseudovirus T257-31 (HIV-1)
[25] = molecular target: HIV-1 Env of pseudovirus 191084 B7-19 (HIV-1)
[26] = molecular target: HIV-1 Env of pseudovirus 3365.v2.c2 (HIV-1)
[27] = molecular target: HIV-1 Env of pseudovirus REJO4541.67 (HIV-1)
[28] = molecular target: HIV-1 Env of pseudovirus X2088_c9 (HIV-1)
[29] = molecular target: HIV-1 Env of pseudovirus QH0692.42 (HIV-1)
[30] = molecular target: HIV-1 Env of pseudovirus X1632_S2_B10 (HIV-1)
[31] = molecular target: HIV-1 Env of pseudovirus Ce0682_E4 (HIV-1)
[32] = molecular target: HIV-1 Env of pseudovirus PVO.4 (HIV-1)
[33] = molecular target: HIV-1 Env of pseudovirus R1166.c01 (HIV-1)
[34] = molecular target: HIV-1 Env of pseudovirus BJOX015000.11.5 (HIV-1)
[35] = molecular target: HIV-1 Env of pseudovirus MS208.A1 (HIV-1)
[36] = molecular target: HIV-1 Env of pseudovirus ZM249M.PL1 (HIV-1)
[37] = molecular target: HIV-1 Env of pseudovirus R3265.c06 (HIV-1)

Q: For VRC07 (antibody), which neutralization IC50 [1] is on record?
A: 0.085 µg/mL

Q: And the neutralization IC80 [1]?
A: 0.422 µg/mL

Q: And the IC50, titer in TZM.bl cells [2]?
A: > 50 µg/mL

Q: And the IC80, titer in TZM.bl cells [2]?
A: > 50 µg/mL

Q: And the neutralization IC50 [3]?
A: 0.041 µg/mL

Q: And the neutralization IC80 [3]?
A: 0.149 µg/mL

Q: And the IC50, titer in TZM.bl cells [4]?
A: 0.11 µg/mL

Q: And the IC80, titer in TZM.bl cells [4]?
A: 0.353 µg/mL

Q: What about the IC50, titer in TZM.bl cells [5] of the same substance?
A: 0.095 µg/mL

Q: And the IC80, titer in TZM.bl cells [5]?
A: 0.392 µg/mL

Q: And the neutralization IC50 [6]?
A: 0.132 µg/mL

Q: What about the neutralization IC80 [6] of the same substance?
A: 0.456 µg/mL

Q: And the IC50, titer in TZM.bl cells [7]?
A: 0.806 µg/mL

Q: What about the IC80, titer in TZM.bl cells [7] of the same substance?
A: 2.9 µg/mL

Q: What about the neutralization IC50 [8] of the same substance?
A: 1.21 µg/mL

Q: What about the neutralization IC80 [8] of the same substance?
A: 6.15 µg/mL

Q: What about the neutralization IC50 [9] of the same substance?
A: 0.282 µg/mL

Q: What about the neutralization IC80 [9] of the same substance?
A: 1.02 µg/mL

Q: And the neutralization IC50 [10]?
A: 0.031 µg/mL

Q: And the neutralization IC80 [10]?
A: 0.086 µg/mL

Q: What about the IC50, titer in TZM.bl cells [11] of the same substance?
A: 1.06 µg/mL

Q: What about the IC80, titer in TZM.bl cells [11] of the same substance?
A: 10 µg/mL

Q: And the neutralization IC50 [12]?
A: 0.024 µg/mL

Q: What about the neutralization IC80 [12] of the same substance?
A: 0.1 µg/mL

Q: What about the neutralization IC50 [13] of the same substance?
A: 0.198 µg/mL

Q: And the neutralization IC80 [13]?
A: 1.42 µg/mL

Q: What about the IC50, titer in TZM.bl cells [14] of the same substance?
A: 2.03 µg/mL

Q: And the IC80, titer in TZM.bl cells [14]?
A: 8.25 µg/mL

Q: What about the IC50, titer in TZM.bl cells [15] of the same substance?
A: 0.024 µg/mL

Q: And the IC80, titer in TZM.bl cells [15]?
A: 0.075 µg/mL

Q: What about the neutralization IC50 [16] of the same substance?
A: 0.034 µg/mL

Q: And the neutralization IC80 [16]?
A: 0.115 µg/mL

Q: And the IC50, titer in TZM.bl cells [17]?
A: 0.121 µg/mL

Q: What about the IC80, titer in TZM.bl cells [17] of the same substance?
A: 0.444 µg/mL

Q: And the IC50, titer in TZM.bl cells [18]?
A: 0.213 µg/mL

Q: What about the IC80, titer in TZM.bl cells [18] of the same substance?
A: 0.609 µg/mL

Q: What about the neutralization IC50 [19] of the same substance?
A: 0.075 µg/mL

Q: What about the neutralization IC80 [19] of the same substance?
A: 0.256 µg/mL

Q: And the neutralization IC50 [20]?
A: 0.017 µg/mL

Q: What about the neutralization IC80 [20] of the same substance?
A: 0.057 µg/mL

Q: And the neutralization IC50 [21]?
A: 0.131 µg/mL

Q: And the neutralization IC80 [21]?
A: 0.48 µg/mL

Q: What about the neutralization IC50 [22] of the same substance?
A: > 50 µg/mL

Q: What about the neutralization IC80 [22] of the same substance?
A: > 50 µg/mL

Q: And the IC50, titer in TZM.bl cells [23]?
A: 0.064 µg/mL

Q: What about the IC80, titer in TZM.bl cells [23] of the same substance?
A: 0.181 µg/mL

Q: And the neutralization IC50 [24]?
A: 0.421 µg/mL

Q: And the neutralization IC80 [24]?
A: 3.17 µg/mL

Q: And the neutralization IC50 [25]?
A: 0.061 µg/mL

Q: What about the neutralization IC80 [25] of the same substance?
A: 0.209 µg/mL

Q: And the neutralization IC50 [26]?
A: 0.038 µg/mL

Q: What about the neutralization IC80 [26] of the same substance?
A: 0.109 µg/mL

Q: And the neutralization IC50 [27]?
A: 0.011 µg/mL

Q: What about the neutralization IC80 [27] of the same substance?
A: 0.037 µg/mL

Q: And the IC50, titer in TZM.bl cells [28]?
A: > 50 µg/mL

Q: And the IC80, titer in TZM.bl cells [28]?
A: > 50 µg/mL

Q: What about the neutralization IC50 [29] of the same substance?
A: 0.5 µg/mL

Q: And the neutralization IC80 [29]?
A: 1.86 µg/mL

Q: What about the IC50, titer in TZM.bl cells [30] of the same substance?
A: 0.023 µg/mL

Q: And the IC80, titer in TZM.bl cells [30]?
A: 0.107 µg/mL

Q: And the neutralization IC50 [31]?
A: 0.039 µg/mL

Q: And the neutralization IC80 [31]?
A: 0.239 µg/mL

Q: What about the neutralization IC50 [32] of the same substance?
A: 0.063 µg/mL

Q: What about the neutralization IC80 [32] of the same substance?
A: 0.226 µg/mL

Q: What about the IC50, titer in TZM.bl cells [33] of the same substance?
A: 0.81 µg/mL

Q: And the IC80, titer in TZM.bl cells [33]?
A: 3.17 µg/mL

Q: And the IC50, titer in TZM.bl cells [34]?
A: 0.054 µg/mL

Q: And the IC80, titer in TZM.bl cells [34]?
A: 0.479 µg/mL

Q: What about the neutralization IC50 [35] of the same substance?
A: 0.12 µg/mL

Q: And the neutralization IC80 [35]?
A: 0.425 µg/mL

Q: And the neutralization IC50 [36]?
A: 0.041 µg/mL

Q: And the neutralization IC80 [36]?
A: 0.145 µg/mL

Q: For N49P11 (antibody), which IC50 [2] is on record?
A: 3.05 µg/mL

Q: What about the IC80 [2] of the same substance?
A: 16.3 µg/mL

Q: What about the MPI [2] of the same substance?
A: 100

Q: And the IC50 [37]?
A: 0.161 µg/mL

Q: What about the IC80 [37] of the same substance?
A: 0.971 µg/mL

Q: What about the MPI [37] of the same substance?
A: 100

Q: And the IC50 [4]?
A: 2.52 µg/mL

Q: And the IC80 [4]?
A: 12.9 µg/mL

Q: What about the MPI [4] of the same substance?
A: 100

Q: What about the IC50 [5] of the same substance?
A: 8.75 µg/mL

Q: What about the IC80 [5] of the same substance?
A: 21.4 µg/mL

Q: What about the MPI [5] of the same substance?
A: 100

Q: What about the IC50 [7] of the same substance?
A: 2.84 µg/mL

Q: And the IC80 [7]?
A: 10.6 µg/mL

Q: And the MPI [7]?
A: 100

Q: And the IC50 [11]?
A: 6.81 µg/mL

Q: And the IC80 [11]?
A: 21.8 µg/mL

Q: What about the MPI [11] of the same substance?
A: 100

Q: And the IC50 [14]?
A: 0.162 µg/mL

Q: What about the IC80 [14] of the same substance?
A: 1.45 µg/mL

Q: And the MPI [14]?
A: 100

Q: And the IC50 [15]?
A: 3.88 µg/mL

Q: And the IC80 [15]?
A: 21.2 µg/mL

Q: And the MPI [15]?
A: 100

Q: And the IC50 [17]?
A: 0.094 µg/mL

Q: What about the IC80 [17] of the same substance?
A: 0.346 µg/mL

Q: What about the MPI [17] of the same substance?
A: 100

Q: And the IC50 [18]?
A: 5.29 µg/mL

Q: What about the IC80 [18] of the same substance?
A: 16.5 µg/mL

Q: And the MPI [18]?
A: 100

Q: What about the IC50 [23] of the same substance?
A: 6.57 µg/mL

Q: What about the IC80 [23] of the same substance?
A: 22.7 µg/mL

Q: What about the MPI [23] of the same substance?
A: 100

Q: And the IC50 [24]?
A: 0.7 µg/mL

Q: And the IC80 [24]?
A: 2.9 µg/mL

Q: And the MPI [24]?
A: 100

Q: And the IC50 [25]?
A: 0.065 µg/mL

Q: And the IC80 [25]?
A: 0.276 µg/mL

Q: What about the MPI [25] of the same substance?
A: 100

Q: And the IC50 [26]?
A: 0.064 µg/mL

Q: And the IC80 [26]?
A: 0.452 µg/mL

Q: And the MPI [26]?
A: 100

Q: What about the IC50 [28] of the same substance?
A: 6.82 µg/mL

Q: And the IC80 [28]?
A: 22 µg/mL

Q: What about the MPI [28] of the same substance?
A: 100

Q: What about the IC50 [30] of the same substance?
A: 9.73 µg/mL

Q: What about the IC80 [30] of the same substance?
A: 26.1 µg/mL

Q: What about the MPI [30] of the same substance?
A: 100

Q: And the IC50 [33]?
A: 0.06 µg/mL

Q: And the IC80 [33]?
A: 0.336 µg/mL

Q: What about the MPI [33] of the same substance?
A: 100

Q: And the IC50 [34]?
A: 0.288 µg/mL

Q: What about the IC80 [34] of the same substance?
A: 1.28 µg/mL

Q: What about the MPI [34] of the same substance?
A: 100
